The values below come from patent US20220289795, “EFFICIENT METHOD FOR PREPARING PPR PROTEIN AND USE OF THE SAME” (EditForce, Inc., published 2022).

What all share (experiment): ELONA; RPB-ELISA
For orientation: In an ELISA, binding on a coated surface is turned into a signal by an enzyme label.

One series has as its target T1, v3.1_PPR15 (Artificial Sequence).
T1 chain: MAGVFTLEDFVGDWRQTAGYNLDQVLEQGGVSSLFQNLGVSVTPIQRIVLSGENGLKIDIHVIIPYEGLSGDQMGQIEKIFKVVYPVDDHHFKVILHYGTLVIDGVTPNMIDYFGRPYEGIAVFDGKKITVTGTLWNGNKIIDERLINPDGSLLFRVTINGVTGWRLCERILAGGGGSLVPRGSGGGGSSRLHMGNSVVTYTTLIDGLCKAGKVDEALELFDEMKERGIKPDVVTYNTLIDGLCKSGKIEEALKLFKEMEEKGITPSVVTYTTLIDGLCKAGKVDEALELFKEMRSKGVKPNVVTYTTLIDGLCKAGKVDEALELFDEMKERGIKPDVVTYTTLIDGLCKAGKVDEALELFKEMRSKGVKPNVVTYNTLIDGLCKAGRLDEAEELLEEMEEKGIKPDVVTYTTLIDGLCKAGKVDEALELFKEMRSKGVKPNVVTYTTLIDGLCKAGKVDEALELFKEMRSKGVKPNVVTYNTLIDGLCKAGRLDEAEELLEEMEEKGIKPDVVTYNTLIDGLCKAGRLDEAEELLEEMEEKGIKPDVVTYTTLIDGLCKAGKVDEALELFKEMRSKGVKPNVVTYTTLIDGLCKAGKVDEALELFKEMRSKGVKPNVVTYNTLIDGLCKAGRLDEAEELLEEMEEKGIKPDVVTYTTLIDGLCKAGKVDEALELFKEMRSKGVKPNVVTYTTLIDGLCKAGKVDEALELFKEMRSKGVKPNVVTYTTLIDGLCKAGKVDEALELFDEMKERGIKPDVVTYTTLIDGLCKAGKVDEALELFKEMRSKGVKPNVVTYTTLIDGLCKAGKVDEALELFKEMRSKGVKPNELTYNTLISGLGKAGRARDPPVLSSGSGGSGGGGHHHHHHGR
Conditions: tags: luciferase fusion; label: 5'-biotin.

A further series addresses T2, NL_v2_PPR15 (Artificial Sequence).
T2 chain: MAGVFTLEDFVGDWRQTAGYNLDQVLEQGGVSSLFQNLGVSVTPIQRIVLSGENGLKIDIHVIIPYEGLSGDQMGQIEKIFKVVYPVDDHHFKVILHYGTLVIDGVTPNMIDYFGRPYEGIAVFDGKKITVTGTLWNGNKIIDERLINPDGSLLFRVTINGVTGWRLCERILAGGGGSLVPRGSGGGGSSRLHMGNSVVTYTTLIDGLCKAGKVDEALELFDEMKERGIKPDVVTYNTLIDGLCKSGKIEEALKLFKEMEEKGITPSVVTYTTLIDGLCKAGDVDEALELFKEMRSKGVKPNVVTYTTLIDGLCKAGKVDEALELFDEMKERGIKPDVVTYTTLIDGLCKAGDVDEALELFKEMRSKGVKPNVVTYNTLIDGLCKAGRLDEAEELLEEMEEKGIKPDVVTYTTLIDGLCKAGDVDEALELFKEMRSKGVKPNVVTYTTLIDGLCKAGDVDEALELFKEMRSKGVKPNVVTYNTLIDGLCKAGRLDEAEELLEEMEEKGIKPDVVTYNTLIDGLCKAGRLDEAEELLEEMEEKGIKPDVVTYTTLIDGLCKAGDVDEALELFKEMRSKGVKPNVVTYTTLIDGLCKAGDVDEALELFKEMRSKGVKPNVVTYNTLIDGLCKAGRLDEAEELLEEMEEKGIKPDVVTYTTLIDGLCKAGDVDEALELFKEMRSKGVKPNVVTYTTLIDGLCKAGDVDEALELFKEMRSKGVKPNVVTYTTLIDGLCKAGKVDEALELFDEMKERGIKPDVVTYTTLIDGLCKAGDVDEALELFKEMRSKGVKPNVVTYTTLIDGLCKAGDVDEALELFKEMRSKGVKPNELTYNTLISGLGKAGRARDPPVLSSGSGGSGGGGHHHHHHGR
The note with it: tags: N-term luciferase, C-term 6xHis; label: 5'-biotin.

The next series concerns the target T3, v3.1_PPR14 (Artificial Sequence).
T3 chain: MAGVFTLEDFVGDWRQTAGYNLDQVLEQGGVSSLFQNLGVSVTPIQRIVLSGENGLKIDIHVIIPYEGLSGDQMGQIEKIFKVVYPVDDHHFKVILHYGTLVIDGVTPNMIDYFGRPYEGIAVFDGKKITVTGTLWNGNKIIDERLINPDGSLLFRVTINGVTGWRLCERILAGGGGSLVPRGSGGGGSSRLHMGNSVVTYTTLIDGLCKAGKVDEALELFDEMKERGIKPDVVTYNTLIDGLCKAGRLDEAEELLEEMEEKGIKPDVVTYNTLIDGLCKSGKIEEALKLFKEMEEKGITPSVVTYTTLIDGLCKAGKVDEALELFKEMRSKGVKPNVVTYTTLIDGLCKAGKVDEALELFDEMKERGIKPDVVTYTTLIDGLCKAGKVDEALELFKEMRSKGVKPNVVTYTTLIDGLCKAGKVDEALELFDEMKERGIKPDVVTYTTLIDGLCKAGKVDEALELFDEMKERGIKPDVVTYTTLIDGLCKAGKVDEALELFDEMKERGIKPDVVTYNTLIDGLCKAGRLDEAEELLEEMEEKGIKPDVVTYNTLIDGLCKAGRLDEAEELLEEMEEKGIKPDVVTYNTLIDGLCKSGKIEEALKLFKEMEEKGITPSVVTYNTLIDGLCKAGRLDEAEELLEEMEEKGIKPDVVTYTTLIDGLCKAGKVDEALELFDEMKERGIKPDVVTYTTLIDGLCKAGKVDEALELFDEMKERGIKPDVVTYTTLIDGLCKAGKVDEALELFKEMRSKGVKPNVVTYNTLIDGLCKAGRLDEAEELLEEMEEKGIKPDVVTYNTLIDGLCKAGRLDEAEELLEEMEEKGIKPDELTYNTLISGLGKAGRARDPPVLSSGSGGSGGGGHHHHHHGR
The note with it: tags: luciferase fusion; label: 5'-biotin.

The target in another series is T4, NL_v2_PPR14 (Artificial Sequence).
T4 chain: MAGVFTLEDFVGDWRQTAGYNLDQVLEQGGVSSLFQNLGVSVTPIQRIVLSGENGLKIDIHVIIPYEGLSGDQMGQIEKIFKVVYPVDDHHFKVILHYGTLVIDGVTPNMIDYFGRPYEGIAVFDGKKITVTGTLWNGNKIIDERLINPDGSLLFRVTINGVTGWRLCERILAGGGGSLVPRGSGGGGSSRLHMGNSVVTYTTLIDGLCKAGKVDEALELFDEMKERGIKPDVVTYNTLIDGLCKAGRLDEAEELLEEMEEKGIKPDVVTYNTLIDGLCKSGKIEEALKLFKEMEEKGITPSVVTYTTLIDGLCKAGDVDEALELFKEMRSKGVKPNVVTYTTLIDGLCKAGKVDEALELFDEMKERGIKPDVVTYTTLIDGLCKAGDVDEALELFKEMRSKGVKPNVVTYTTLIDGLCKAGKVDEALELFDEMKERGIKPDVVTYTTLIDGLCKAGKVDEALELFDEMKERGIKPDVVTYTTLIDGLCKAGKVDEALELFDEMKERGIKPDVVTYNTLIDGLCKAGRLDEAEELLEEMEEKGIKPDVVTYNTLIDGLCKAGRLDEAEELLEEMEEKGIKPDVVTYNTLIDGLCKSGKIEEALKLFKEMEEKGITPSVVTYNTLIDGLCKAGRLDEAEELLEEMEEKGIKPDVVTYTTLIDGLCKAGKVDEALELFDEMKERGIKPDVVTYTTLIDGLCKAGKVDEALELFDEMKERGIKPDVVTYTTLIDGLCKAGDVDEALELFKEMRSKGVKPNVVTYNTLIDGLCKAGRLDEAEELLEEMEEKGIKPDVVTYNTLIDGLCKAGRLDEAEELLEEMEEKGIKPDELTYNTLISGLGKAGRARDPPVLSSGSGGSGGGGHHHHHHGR
Conditions: tags: N-term luciferase, C-term 6xHis; label: 5'-biotin.

The target in a further series is T5, v3.1_PPR13 (Artificial Sequence).
T5 chain: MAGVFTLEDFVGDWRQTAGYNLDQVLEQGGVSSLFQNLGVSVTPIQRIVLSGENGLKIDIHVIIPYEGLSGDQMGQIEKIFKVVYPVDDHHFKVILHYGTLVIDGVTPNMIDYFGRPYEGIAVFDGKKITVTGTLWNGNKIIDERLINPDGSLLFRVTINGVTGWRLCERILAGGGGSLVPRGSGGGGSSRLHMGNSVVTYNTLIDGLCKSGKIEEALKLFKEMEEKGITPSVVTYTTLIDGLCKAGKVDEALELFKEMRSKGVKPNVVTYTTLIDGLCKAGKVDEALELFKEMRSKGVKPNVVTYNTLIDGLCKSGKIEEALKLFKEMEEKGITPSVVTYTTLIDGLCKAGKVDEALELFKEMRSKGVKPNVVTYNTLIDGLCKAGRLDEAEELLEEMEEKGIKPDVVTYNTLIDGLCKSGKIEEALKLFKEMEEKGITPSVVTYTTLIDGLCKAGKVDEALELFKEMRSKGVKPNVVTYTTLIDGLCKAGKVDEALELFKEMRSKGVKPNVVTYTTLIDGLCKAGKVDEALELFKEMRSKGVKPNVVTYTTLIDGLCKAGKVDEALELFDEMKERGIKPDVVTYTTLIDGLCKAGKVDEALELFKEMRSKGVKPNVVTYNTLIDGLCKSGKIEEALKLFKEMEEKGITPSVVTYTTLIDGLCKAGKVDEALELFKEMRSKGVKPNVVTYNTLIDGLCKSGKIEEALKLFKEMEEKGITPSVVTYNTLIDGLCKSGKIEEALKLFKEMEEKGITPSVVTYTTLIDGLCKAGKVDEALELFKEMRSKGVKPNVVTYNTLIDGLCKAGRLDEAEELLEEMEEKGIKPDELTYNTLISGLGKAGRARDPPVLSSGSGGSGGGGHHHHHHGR
Conditions: tags: luciferase fusion; label: 5'-biotin.

A further series addresses T6, NL_v2_PPR13 (Artificial Sequence).
T6 chain: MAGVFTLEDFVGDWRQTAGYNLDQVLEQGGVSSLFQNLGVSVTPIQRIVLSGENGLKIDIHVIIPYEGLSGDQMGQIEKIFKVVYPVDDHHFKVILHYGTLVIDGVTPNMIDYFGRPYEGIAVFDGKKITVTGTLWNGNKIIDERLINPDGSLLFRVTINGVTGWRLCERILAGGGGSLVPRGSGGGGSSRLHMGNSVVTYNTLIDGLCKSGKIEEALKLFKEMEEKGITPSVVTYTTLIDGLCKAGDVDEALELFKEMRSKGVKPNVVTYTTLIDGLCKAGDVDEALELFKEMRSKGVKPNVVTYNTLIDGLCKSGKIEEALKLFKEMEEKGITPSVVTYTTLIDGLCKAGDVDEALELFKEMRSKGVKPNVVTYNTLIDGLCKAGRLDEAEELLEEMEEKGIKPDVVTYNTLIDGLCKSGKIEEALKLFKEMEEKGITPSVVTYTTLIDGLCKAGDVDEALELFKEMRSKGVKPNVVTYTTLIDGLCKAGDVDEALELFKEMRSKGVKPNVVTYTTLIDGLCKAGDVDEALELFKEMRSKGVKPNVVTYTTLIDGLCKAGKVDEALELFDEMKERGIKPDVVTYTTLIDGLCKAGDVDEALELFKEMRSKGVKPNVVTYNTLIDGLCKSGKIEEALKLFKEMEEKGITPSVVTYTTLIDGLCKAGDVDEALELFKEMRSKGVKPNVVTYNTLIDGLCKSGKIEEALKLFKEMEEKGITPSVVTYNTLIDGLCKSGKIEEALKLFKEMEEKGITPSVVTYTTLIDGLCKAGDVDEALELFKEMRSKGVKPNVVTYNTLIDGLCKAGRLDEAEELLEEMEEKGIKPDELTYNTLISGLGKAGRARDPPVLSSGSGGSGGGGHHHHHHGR
The note with it: tags: N-term luciferase, C-term 6xHis; label: 5'-biotin.

Turning to GACAUGCGCAGAUAAUUAAUAAGAAGACUG (ssRNA) [RNA_15], the figures for the binding signal with v3.1_PPR15 and in the series with NL_v2_PPR15 were 3.2e+07 luminescence and 1.3e+07 luminescence, respectively.

Turning to GACAUGCGUCAGAGGGUUCUGGAUUGACUG (ssRNA) [RNA_14], the binding signal in the series with v3.1_PPR14 and with NL_v2_PPR14 was 2.5e+07 luminescence each time.

For the molecule GACAUGCCAACAUCAAAGACACCAUGACUG (ssRNA) [RNA_13], the binding signal is 4e+07 luminescence in the series with v3.1_PPR13 and 2.3e+06 luminescence in the series with NL_v2_PPR13.
